This note sets out measurements from publication PMC7020209 (Plants, 2020).

Read-outs that look alike come from different tables or passages of the source.

Holding throughout (settings): co-substrate O2, 30 °C
Data set [1] has as its system N3-GOX. The experiment in a line: O2 consumption, Hansatech oxygen electrode, nonlinear Michaelis-Menten fit. It counts as biochemical, synthetic construct. An excerpt:
O2 consumption, Hansatech oxygen electrode, nonlinear Michaelis-Menten fit on N3-GOX

Substrate in data set [2]: C[C@H](O)C(=O)O
The experiment in a line: purified protein.

Substrate in data set [3]: O=C(O)CO
The experiment in a line: purified protein.

In the case of `C[C@H](O)C(=O)O` [L-lactate], the Km in data set [1] (read-out: L-Lactate / Km) was determined as 13.7 ± 1.93 mM.

Regarding `O=C(O)CO` [glycolate], the Km in data set [1] (read-out: Glycolate / Km) is 11.8 ± 0.61 mM.

B1: Sp-GOX (Spirogyra pratensis) (protein)
chain: MSSEVVNVTEFQAIAKQKLPKQTYDYYASGAEDEWSLRENRNAFERITFRPRILIDVSKIDLTTSVLGYRLSMPIMVAPTAMQKMAHPDGELATARAATSMNTAMTLSSWATSSVEEVSSTGPGLRFFQLYVYKNRDVVLQLVRRAEKAGFKAIALTVDTPRLGRREADIRNKFVLPPGLTLKNFEGLDLGKMDQTEDSGLASYVAGQIDRSLSWKDVKWLQSVTSMPILVKGVITGEDAKIAVECGASGIIVSNHGARQLDYVSSTINALEEVVKATAGRIPVFLDGGVRRGTDVLKALALGAKGVFVGRPVVFALASDGEAGVKKCLQMLRDEFELAMALAGCTKISDINRSLVQTEGDRIRMAARL
In general, Vmax refers to the top rate of the reaction or transport when substrate is in excess. With B1, the Km was found to be 15.52 ± 4.55 mM in data set [2] and 0.94 ± 0.12 mM in data set [3]. The Vmax in data set [2] amounted to 24.2 µmol/min/mg; in data set [3], 28.1 µmol/min/mg.

B2: Cp-GOXc (Cyanophora paradoxa) (protein)
chain: MQPLSAQALAQYRAAAPMDPVNVMEYQMVAKEKLPKMVYDYYASGADDQWTLQEARSAFERITFRPRVLVDVSVQDMSTTILGQKVAFPICVAPTAMQCMATGQGEKATSRAVASMNTLMTLSSWSTTPLEEVAKAAPHGARWFQLYVYKDRACTERLVRRAQAAGYKALCLTVDTPRLGRRENDVKNRFHLPDGLTMGNFLDLVQAEMPTDQKDSGLAAYVASLIDPTLNWKDVEWLKTITNLPIVVKGVLTAEDALMAVKHGCAGIVVSNHGARQLDYSPATIDVLEEVVNAVRGYPIEVYLDGGVRRGTDALKALALGARAVFVGRPVVWGLAAGGEEGVRKVLTMLRDEFKLGLALLGCQSLKDINRSMVVTPADRAKTAVRARL
As for B2, the Km is given as 9.27 ± 1.44 mM in data set [2] and 0.38 ± 0.05 mM in data set [3]. The figures for the Vmax in data set [2] and in data set [3] were 6.94 µmol/min/mg and 8.98 µmol/min/mg, respectively.
